Columns and labels:
[1] = target: DR2a (DRA*0101/DRB5*0101) with non-biotinylated β chain, competitive LOCI assay (human); test: AlphaScreen or HTRF
[2] = target: DRB3*0301: DRA*0101/DRB3*0301 (human); test: AlphaScreen or HTRF
[3] = target: I-E^d (mouse MHC class II) (mouse) (UniProt P01904); test: AlphaScreen or HTRF
[4] = target: DRB1*0813: DRA*0101/DRB1*0813 (human); test: AlphaScreen or HTRF
[5] = target: DP401: DPA1*0103/DPB1*0401 (human); test: AlphaScreen or HTRF
[6] = target: DR2a (DRA*0101/DRB5*0101), biotinylated, direct LOCI assay at pH 6 (human); test: AlphaScreen or HTRF
[7] = target: DR4 (DRA*0101/DRB1*0401), biotinylated, LOCI assay (human); test: AlphaScreen or HTRF
[8] = target: DR1GrpE: DR1 α chain 1–181 and β chain 1–190 fused C-terminally to GrpE, not biotinylated (human); test: AlphaScreen or HTRF
[9] = target: ^125I labeled (Y)HA306–318 (influenza); test: radioligand binding

Substance	IC50 [1] [nM]	Kd [2] [nM]	Kd [3] [nM]	Kd [4] [nM]	Kd [5] [nM]	Kd [6] [nM]	Kd [7] [nM]	IC50 [8] [nM]	EC50 [9] [nM]
6xH Influenza A (PR8) HA 109–119 peptide …	23	1530	984	181	1	9	1870	325	
DR1: DRA*0101(1–191)/DRB1*0101(1–198) (complex)									20
